One protein from article PMC9503767, “Site-Differentiated Iron–Sulfur Cluster Ligation Affects Flavin-Based Electron Bifurcation Activity” (Metabolites, 2022) can be followed below.

Substrate in this data set: NC(=O)C1=CN([C@@H]2O[C@H](COP(=O)(O)OP(=O)(O)OC[C@H]3O[C@@H](n4cnc5c(N)ncnc54)[C@H](OP(=O)(O)O)[C@@H]3O)[C@@H](O)[C@H]2O)C=CC1
As to the kind of experiment: purified protein. It counts as biochemical, Pyrococcus furiosus. As to conditions: FAD; two [4Fe-4S] clusters oxidized by L-FAD.

B1: NfnL (large subunit of NADH-dependent reduced-ferredoxin: NADP+ oxidoreductase NfnSL) (Pyrococcus furiosus DSM 3638) (protein)
chain: MPRLIKDRVPTPERSVGERVRDFGEVNLGYSWELALREAERCLQCPVEYAPCIKGCPVHINIPGFIKALRENRDNPSKAVREALRIIWRDNTLPAITGRVCPQEEQCEGACVVGKVGDPINIGKLERFVADYAREHGIDDELLLEEIKGIKRNGKKVAIIGAGPAGLTCAADLAKMGYEVTIYEALHQPGGVLIYGIPEFRLPKEIVKKELENLRRLGVKIETNVLVGKTITFEELREEYDAIFIGTGAGTPRIYPWPGVNLNGIYSANEFLTRINLMKAYKFPEYDTPIKVGKRVAVIGGGNTAMDAARSALRLGAEVWILYRRTRKEMTAREEEIKHAEEEGVKFMFLVTPKRFIGDENGNLKAIELEKMKLGEPDESGRRRPIPTGETFIMEFDTAIIAIGQTPNKTFLETVPGLKVDEWGRIVVDENLMTSIPGVFAGGDAIRGEATVILAMGDGRKAAKAIHQYLSKEK
notes: isolated NfnL-WT subunit
For B1, the Km is 1300 ± 100 µM, the Vmax amounted to 3000 µM/min, the kcat turned out to be 2.3 ± 0.3 s⁻¹ and the kcat/Km is 1700 ± 300 M⁻¹ s⁻¹.
